Publication PMC2572730, “Structural Basis for the Recognition of Histone H4 by the Histone-Chaperone RbAp46” (Structure(London, England:1993), 2008)

Columns and labels:
[1] = molecular target: T1, RbAp46 (Homo sapiens, UniProt Q16576); assay: Reciprocal pull-down of 35S-labeled RbAp46 with GST-histone H4 (1–48) mutants; type: binding; details: autoradiogram, 300 mM NaCl, 20 mM Tris pH 8.0, 5 mM DTT, 0.1% (v/v) NP-40
T1 construct: His-tag (cleaved yes); made in house; host or cells: insect cells (baculovirus)
T1 sequence (Q16576 whole entry): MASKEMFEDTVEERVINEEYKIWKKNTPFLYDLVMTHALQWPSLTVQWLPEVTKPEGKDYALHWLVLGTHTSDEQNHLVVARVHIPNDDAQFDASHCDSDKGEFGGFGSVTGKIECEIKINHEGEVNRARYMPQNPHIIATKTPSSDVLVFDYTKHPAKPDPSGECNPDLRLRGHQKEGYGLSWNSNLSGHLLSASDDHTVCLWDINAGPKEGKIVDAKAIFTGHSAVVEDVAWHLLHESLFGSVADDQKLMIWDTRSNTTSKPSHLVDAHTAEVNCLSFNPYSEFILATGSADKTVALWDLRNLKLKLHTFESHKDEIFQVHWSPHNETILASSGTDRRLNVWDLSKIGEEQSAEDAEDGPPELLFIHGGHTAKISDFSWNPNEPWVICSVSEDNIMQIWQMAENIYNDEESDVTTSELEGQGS
Source text: Figure 2 Histone H4 Recognition by the RbAp46-Binding Pocket (A) Electrostatic surface potential of RbAp46 contoured and color coded at −91 kT (red) and +91 kT (blue). […] The histone H4 peptide is shown as a stick model. The histone H4-binding pocket in RbAp46 is mainly formed by the negatively charged PP loop (which terminates in Pro-362 and Pro-363) and a hydrophobic surface on the N-terminal α helix (helix 1). The interaction of histone H4 residues (Gln-27, Lys-31, Ile-34, Arg-35, Arg-36, Leu-37, Arg-39, and Arg-40) is shown. (B) Detailed view showing the interactions of the hydrophobic Ile-34 and Leu-37 histone H4 residues with Phe-29 and Leu-30 in helix 1 of RbAp46, as well as the positively charged Arg-36, Arg-39, and Arg-40 histone H4 residues with the backbone carbonyl groups in the PP loop and a cluster of acidic residues (Glu-356, Asp-357, and Asp-360) in RbAp46. […] In each experiment, the input lane contains 30% of the ^35S-labeled RbAp46 protein used in each of the pull-down assays. The experiments were carried out in 300 mM NaCl, 20 mM Tris (pH 8.0), 5 mM DTT, and 0.1% (v/v) NP-40.
Recombinant histone H4 and RbAp46 proteins were expressed and purified as described previously ([Verreault et al., 1998; Berger et al., 2004]). Detailed procedures for the generation of the RbAp46/histone H4 peptide and recombinant histone H4 complexes can be found in the Supplemental Data. Recombinant full-length (Xenopus lavis) histones H3 and H4 were expressed, purified, and refolded as described ([Luger et al., 1997]). For the binding experiments, histones H3/H4 and lysozyme (Sigma) were crosslinked to DynaBeads (Dynal Biotech) according to the manufacturer's recommendations. RbAp46 and histone H4 mutants were generated by using the QuikChange Site-Directed Mutagenesis kit (Stratagene). The RbAp46 mutants were expressed by using a Rabbit Reticulocyte Cell Free system (Promega).

[2] = molecular target: T1, RbAp46; assay: BS3 chemical crosslinking with RbAp46; type: binding; details: BS3 crosslinker; 1.1 M NaCl, 20 mM HEPES pH 7.5, 10 mM DTT; ∼10 μM protein; room temperature 30 min; NuPAGE, Coomassie and anti-H3/anti-H4 immunoblot
Source text: Figure 4 Interaction of Histones H3 and H4 with RbAp46 (A) Comparison of chemical crosslinking of histones H3 and H4 in the absence and presence of RbAp46. Three different 4%–12% NuPAGE gels were either (i) stained with Coomasie blue or blotted with (ii) anti-histone H4 or (iii) anti-histone H3 antibodies. By themselves, histones H3 and H4 appear to form a H3/H4 heterodimer (∼25 kDa), an H3_2 homodimer (∼30 kDa), and an H3_2/H4_2 heterotetramer (∼50 kDa), indicated by arrowheads. In the presence of RbAp46, two bands, which both contain histones H3 and H4 (also indicated by arrowheads), can be seen in positions roughly corresponding to the interaction of RbAp46 with histone H3/H4 dimers and tetramers (∼65–75 kDa). […] The fractions were collected and analyzed on 4%–12% NuPAGE gels.
RbAp46/H3/H4 crosslinking was performed by using the BS^3 crosslinker (Pierce) in 1.1 M NaCl, 20 mM HEPES (pH 7.5), and 10 mM DTT. Freshly prepared BS^3 stock solution, 3% (w/v), was diluted 1/5, 1/10, 1/20, 1/50, and 1/100 with distilled water, and 1 μl of the resulting solution was mixed with 10 μl of ∼10 μM RbAp46, recombinant histone H3/H4, or RbAp46/H3/H4 prior to incubation at room temperature for 30 min. […] The proteins were analyzed on separate 4%–12% NuPAGE gels, one for Coomassie blue staining and one for each Western blot with either anti-histone H3 (Abcam) or anti-histone H4 (A.V.) antibodies.

[3] = system: RbAp46 or RbAp48; details: ref Verreault et al., 1998; cited from earlier work

Effect of histone H4 mutation on binding to RbAp46 [1] | Substance | further results
disrupt the binding | I34T + L37D + R35S: GST-histone H4 (1–48) mutated in residues interacting with both helix 1 and the charged PP loop | –
disrupt the binding | L37D + R39V + R40N: GST-histone H4 (1–48) mutated in residues interacting with both helix 1 and the charged PP loop | –
– | lysozyme: positively charged lysozyme protein (Sigma), negative control | Crosslinked species with RbAp46 [2]: no crosslinked species
– | residues 15–41 of histone H4: residues 15–41 of histone H4, sufficient for recognition by RbAp46 or RbAp48 (earlier studies) | Recognition by RbAp46 or RbAp48 [3]: sufficient for recognition by either RbAp46 or RbAp48
disrupt the binding | R39V + R40N: GST-histone H4 (1–48) mutated in residues interacting with the charged PP loop | –
